Where a chain is given by its changes, count along the chain named.
B1: corn Hageman factor inhibitor (CHFI), control protein from Zea mays seeds (natural protein)
chain: SAGTSCVPGWAIPHNPLPSCRWYVTSRTCGIGPRLPWPELKRRCCRELADIPAYCRCTALSILMDGAIPPGPDAQLEGRLEDLPGCPREVQRGFAATLVTEAECNLATIS
B2: CHFI-12345, recombinant full-size CHFI without any truncations (natural protein)
chain: B1 chain
B3: CHFI-1245, full-size CHFI with Cys29 substituted by Asp (natural protein)
chain: B1 chain with C29D
B4: CHFI-2345 (domain or fragment)
chain: IPHNPLPSCRWYVTSRTCGIGPRLPWPELKRRCCRELADIPAYDRCTALSILMDGAIPPGPDAQLEGRLEDLPGCPREVQRGFAATLVTEAECNLATISGVAECPWILGGGTMPSK

The binders below were run against activated coagulation factor XII (FXIIa) (assay: chromogenic enzyme inhibition assay; 1 nM FXIIa, 500 μM S2302, 37 °C, 110 mM Tris-HCl pH 8.0, 250 mM NaCl, 1% BSA; residual activity in triplicate at at least six inhibitor concentrations; Ki from a linear fit of 1/v against inhibitor concentration).

Ki	Binder
1 nM	B1
1.1 nM	B2
50 nM	B3
1 nM	B4

Each binder was assayed against bovine pancreatic trypsin (bovine) (assay: chromogenic enzyme inhibition assay; 1 nM trypsin, 500 μM S2765, 37 °C, 110 mM Tris-HCl pH 8.0, 250 mM NaCl, 1% BSA; residual activity in triplicate at at least six inhibitor concentrations; Ki from a linear fit of 1/v against inhibitor concentration).
Sequence of bovine pancreatic trypsin (bovine) (P00760 24-246): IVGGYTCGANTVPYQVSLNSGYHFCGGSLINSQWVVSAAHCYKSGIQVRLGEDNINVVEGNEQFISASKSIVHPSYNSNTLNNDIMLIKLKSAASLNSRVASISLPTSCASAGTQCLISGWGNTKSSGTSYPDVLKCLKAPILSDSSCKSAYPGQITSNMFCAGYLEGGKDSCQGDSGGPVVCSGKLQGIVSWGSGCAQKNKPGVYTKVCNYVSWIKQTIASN

Ki	Binder
2.1 nM	B1
1.3 nM	B2
250 nM	B3
2.9 nM	B4

— publication PMC4022879
